Laboratory results taken from paper PMC2217618 (Apoptosis, 2007).
[ ]: non-standard residue; d: D form.

Target: αvβ3 integrin (human (endogenous in HUVEC), UniProt P06756;P05106)
Test: radioligand binding

Chain of αvβ3 integrin (P06756 31-1048, chain 1 of 2): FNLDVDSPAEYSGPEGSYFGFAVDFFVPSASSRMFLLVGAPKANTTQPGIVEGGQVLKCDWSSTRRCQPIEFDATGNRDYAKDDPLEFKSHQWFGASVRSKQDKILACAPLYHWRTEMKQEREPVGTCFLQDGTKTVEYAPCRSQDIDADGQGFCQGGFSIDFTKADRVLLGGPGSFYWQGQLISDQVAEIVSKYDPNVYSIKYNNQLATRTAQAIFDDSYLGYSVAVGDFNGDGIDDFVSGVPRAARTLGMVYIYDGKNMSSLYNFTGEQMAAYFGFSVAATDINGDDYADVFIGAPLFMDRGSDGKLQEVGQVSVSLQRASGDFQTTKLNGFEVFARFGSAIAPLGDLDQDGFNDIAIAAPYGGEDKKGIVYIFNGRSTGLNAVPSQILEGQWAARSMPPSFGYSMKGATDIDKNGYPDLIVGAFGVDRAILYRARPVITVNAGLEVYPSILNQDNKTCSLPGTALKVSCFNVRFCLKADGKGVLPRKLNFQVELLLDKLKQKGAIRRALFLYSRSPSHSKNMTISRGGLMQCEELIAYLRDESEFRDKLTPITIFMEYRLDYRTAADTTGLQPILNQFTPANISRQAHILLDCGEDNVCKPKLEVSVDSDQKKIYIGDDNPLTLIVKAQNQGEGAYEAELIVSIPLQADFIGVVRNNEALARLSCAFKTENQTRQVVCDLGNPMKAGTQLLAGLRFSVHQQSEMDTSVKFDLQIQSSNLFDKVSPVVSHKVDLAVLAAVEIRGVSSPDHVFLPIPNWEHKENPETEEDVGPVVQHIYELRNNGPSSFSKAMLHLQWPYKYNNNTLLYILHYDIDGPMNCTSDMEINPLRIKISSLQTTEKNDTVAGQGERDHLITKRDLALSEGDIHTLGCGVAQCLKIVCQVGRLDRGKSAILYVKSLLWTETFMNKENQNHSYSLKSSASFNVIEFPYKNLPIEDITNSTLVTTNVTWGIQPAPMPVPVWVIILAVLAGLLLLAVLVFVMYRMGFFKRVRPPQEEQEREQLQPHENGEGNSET
Chain of αvβ3 integrin (P05106 27-788, chain 2 of 2): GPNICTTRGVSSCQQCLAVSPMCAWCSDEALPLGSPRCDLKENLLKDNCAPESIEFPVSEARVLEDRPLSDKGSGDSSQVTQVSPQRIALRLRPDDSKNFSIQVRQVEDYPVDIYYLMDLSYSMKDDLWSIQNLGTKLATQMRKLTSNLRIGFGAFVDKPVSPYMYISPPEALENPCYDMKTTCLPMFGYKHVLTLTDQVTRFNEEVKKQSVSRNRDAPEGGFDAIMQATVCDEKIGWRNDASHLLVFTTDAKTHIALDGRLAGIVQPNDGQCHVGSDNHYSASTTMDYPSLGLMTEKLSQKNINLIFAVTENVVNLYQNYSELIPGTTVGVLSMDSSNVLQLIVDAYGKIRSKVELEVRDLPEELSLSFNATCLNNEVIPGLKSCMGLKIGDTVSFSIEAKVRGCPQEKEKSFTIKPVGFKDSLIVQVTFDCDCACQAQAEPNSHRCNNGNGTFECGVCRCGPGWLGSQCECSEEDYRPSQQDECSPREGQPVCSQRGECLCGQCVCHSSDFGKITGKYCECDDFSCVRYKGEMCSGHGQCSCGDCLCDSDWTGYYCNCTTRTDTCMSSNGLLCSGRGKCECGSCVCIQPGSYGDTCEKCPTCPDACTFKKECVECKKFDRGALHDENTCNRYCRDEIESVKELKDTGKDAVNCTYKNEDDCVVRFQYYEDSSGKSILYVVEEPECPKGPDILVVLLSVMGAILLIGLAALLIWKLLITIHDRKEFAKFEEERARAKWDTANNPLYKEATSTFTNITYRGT

B1: RGD peptide c(RGDf(ε-S-acetylthioacetyl)K) (peptide)
peptide: cyclo(RGD[dF]K(S‑acetylthioacetyl))
IC50: 383 nM
